Data on twelve substances can be found in patent US9696316B2, “Conformationally dynamic peptides” (SYSTEM OF SYSTEMS ANALYTICS, INC., priority 2009, dated 2017).

Aβ42 oligomer, sequence (P05067 672-713 limits assumed): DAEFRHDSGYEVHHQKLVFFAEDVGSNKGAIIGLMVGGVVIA

Tested on in one series: not listed separately
The series can be described thus: Additional work on stability of the β-sheet conformation of variants. In kind it is physicochemical. Particulars: relative to parent sequence.
“KLVFFAEDVGSNKHAIIEDMK (KLVFFAEDVGSNKHAIIEDMK) [AD329, P22, with point mutation L34D]”: the “effect of the substitutions on the β-sheet conformation of the probe” value (from here on “effect of the substitutions”) is recorded as “destabilize the β-sheet conformation”.

As to “KLVFFAEDVGSNKDAIIELMK (KLVFFAEDVGSNKDAIIELMK) [AD328, P22, with point mutation H29D]”, the “effect of the substitutions” value is reported as “destabilize the β-sheet conformation”. Turning to “KLVSFAEDVGSNKHAIIEPMK (KLVSFAEDVGSNKHAIIEPMK) [GM6, P22, with point mutations F19S, L34P]”, the “effect of the substitutions” value is “destabilize the β-sheet conformation”. Regarding “KLVFFAEDVGSNKGAISGLMK (KLVFFAEDVGSNKGAISGLMK) [Peptide 132S, Wildtype, with I32S point mutation]”, the “effect of the substitutions” value is recorded as “destabilize the β-sheet conformation”.

With “KLVSFAEDVGSNKHAIIELMK (KLVSFAEDVGSNKHAIIELMK) [GM6 variation 1, P22, with point mutation F19S]”, the “effect of the substitutions” value is “destabilize the β-sheet conformation”. Still for that read-out and setting: to “KLVFFAEDVGSNKHADIELMK (KLVFFAEDVGSNKHADIELMK) [AD330, P22, with point mutation I31D]” belongs “destabilize the β-sheet conformation”; to “KLVFFAEDVGSNKDADIELMK (KLVFFAEDVGSNKDADIELMK) [AD323, P22, with point mutations H29D and I31D]”, “destabilize the β-sheet conformation”; to “KLVFFAEDVGDNKHAIIELMK (KLVFFAEDVGDNKHAIIELMK) [AD325, P22, with point mutation 526D]”, “destabilize the β-sheet conformation”. “KLVFFAEDVGDNKHADIELMK (KLVFFAEDVGDNKHADIELMK) [AD327, P22, with point mutation S26D, I31D]”: the “effect of the substitutions” value is “destabilize the β-sheet conformation”.

The next series concerns the target Aβ42 oligomer (Homo sapiens, UniProt P05067). The series can be described thus: Aqueous Aβ oligomer assay, pyrene fluorescence. In kind it is binding. Particulars: aqueous assay. The text has this:
The conformation of peptide probe bound to the target protein can also be detected by measuring pyrene fluorescence, on the peptide alone and in combination with the target protein. […] The excimer fluorescence associated with the β-sheet conformation has a different wavelength than the monomer fluorescence associated with the alpha-helix conformation, and the excimer:monomer fluorescence ratio is 9:1. […] The addition of Aβ42 oligomer target protein results in a dose-dependent shift of the excimer:monomer fluorescence ratio to 20:1 at the highest Aβ42 oligomer concentration (0.3 μM). This change in excimer:monomer fluorescence ratio reflects a corresponding conformational change in the peptide, that results in increased β-sheet conformation, and decreased α helix conformation.
An Aβ oligomer assay may be conducted in an aqueous solvent, such as water. […] Upon introduction of Aβ oligomer, the fluorescence profile shifts to primarily self-fluorescence (monomeric) (see FIG. 11), which is associated with reduced β-sheet structure, or increased alpha helix structure.
As discussed above, Peptide 22 (SEQ ID NO: 2) undergoes a conformational change upon interaction with Aβ oligomer. FIG. 11 illustrates the fluorescence spectra for Peptide 22 labeled at each terminus with pyrene and incubated in aqueous conditions for several hours at room temperature in 10 mM Hepes (pH 7.0). […] (solid line=Time 0; dashed line=3 hours; dotted line=18 hours).
Peptide 22 (100 nM) is incubated in water for 15 hours at room temperature with equimolar concentrations ([…]) of several potential Aβ substrates: Aβ42 oligomer (type 1); Aβ42 oligomer (type 2); Aβ1-42 monomer; Aβ1-40 monomer; Aβ1-42 fiber; Aβ1-40 fiber; bovine serum albumin (control substrate); and carbonic anhydrase (control substrate).
With reference to FIG. 13A, Peptide 22 (70 nM) is incubated with […] synthetic Aβ42 oligomer at 25 C, and fluorescence emission spectra is recorded after 3 hours incubation. […] (solid line—no Aβ42 oligomer; dashed/dot line—30 nN Aβ42 oligomer; large dashed line—100 nN Aβ42 oligomer; small dashed line—300 nN Aβ42 oligomer)
On to “KLVFFAEDVGSNKRAIIELMK (KLVFFAEDVGSNKRAIIELMK) [Peptide 22 variation 1, Salt bridge at G29R and G33E]”, for which the “reactivity with Aβ42 oligomers (transition from pyrene excimer fluorescence to pyrene self-fluorescence)” value (“reactivity with Aβ42 oligomers” below) was “react with Aβ42 oligomers”. Consider “KLVFFAEDVGSNKKAIIELMK (KLVFFAEDVGSNKKAIIELMK) [Peptide 22 variation 2, Salt bridge at G29K and G33E]”, for which the “reactivity with Aβ42 oligomers” value is “react with Aβ42 oligomers”. Take “KAAA KLVFFAEDVGSNKHAIIELMK (KAAAKLVFFAEDVGSNKHAIIELMK) [Peptide 45, Salt bridge at G29H and G33E; Ala additions to increase alpha-helicity]”: the “reactivity with Aβ42 oligomers” value is listed as “react with Aβ42 oligomers”.
